Assay results from article PMC12697855, “Distinct Phage‐Encoded Enzymes for Substitution of Deoxythymidine by Deoxyuridine in Phage Genomes” (Advanced Science, 2025).

Columns and labels:
Dtt_PhiR1‐37 = tested on: T1, Dtt_PhiR1‐37; assay: phosphomolybdate phosphate release, coupled inorganic pyrophosphatase IPP1; format: biochemical, Yersinia phage phiR1-37; details: 2 mM Mg2+, 50 mM Tris-HCl pH 7.5, room temperature; read-out: kinetic parameters
T1 construct: gene Dtt; recombinant from codon-optimized synthetic gene in HMT plasmid, N-terminal His6-MBP tag, amylose column, E. coli
Source text: phosphomolybdate phosphate release, coupled inorganic pyrophosphatase IPP1 on Dtt_PhiR1‐37

Dcd_PBS1 = target: T2, Dcd_PBS1 (Bacillus phage PBS1, UniProt A0A223LD31); assay: inhibition of dCTP deamination (details in supplement); format: biochemical; details: inhibitor (negative regulation); also the reaction product
T2 construct: gene 112; recombinant from codon-optimized synthetic gene in HMT plasmid, N-terminal His6-MBP tag, amylose column, E. coli
T2 sequence (A0A223LD31 1-176): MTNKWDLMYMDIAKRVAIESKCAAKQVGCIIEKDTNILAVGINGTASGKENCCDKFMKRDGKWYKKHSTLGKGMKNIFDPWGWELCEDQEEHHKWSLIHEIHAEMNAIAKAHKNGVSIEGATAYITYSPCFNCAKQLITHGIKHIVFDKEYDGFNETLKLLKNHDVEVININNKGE

Dcd_PhiR1‐37 = tested on: T3, Dcd_PhiR1‐37; assay: UV absorbance at […] nm, deamination; format: biochemical, Yersinia phage phiR1-37; details: Mg2+ (table; methods text says 2 mM Mn2+), 50 mM Tris-HCl pH 7.5, room temperature; read-out: kinetic parameters
T3 construct: gene Dcd; recombinant from codon-optimized synthetic gene in HMT plasmid, N-terminal His6-MBP tag, amylose column, E. coli

purified protein [1] = substrate: Nc1ccn([C@H]2C[C@H](O)[C@@H](COP(=O)(O)OP(=O)(O)OP(=O)(O)O)O2)c(=O)n1; assay: purified protein; format: biochemical, Bacillus phage PBS1; details: 2 mM Mn2+, 50 mM Tris-HCl pH 7.5, room temperature
purified protein [2] = substrate: Nc1ccn([C@H]2C[C@H](O)[C@@H](COP(=O)(O)O)O2)c(=O)n1; assay: purified protein; format: biochemical, Sulfurimonas gotlandica; details: 2 mM Mn2+, 50 mM Tris-HCl pH 7.5, room temperature
purified protein [3] = substrate: Nc1ccn([C@H]2C[C@H](O)[C@@H](COP(=O)(O)OP(=O)(O)O)O2)c(=O)n1; assay: purified protein; format: biochemical, Sulfurimonas gotlandica; details: 2 mM Mn2+, 50 mM Tris-HCl pH 7.5, room temperature
purified protein [4] = substrate: Nc1ccn([C@H]2C[C@H](O)[C@@H](COP(=O)(O)OP(=O)(O)OP(=O)(O)O)O2)c(=O)n1; assay: purified protein; format: biochemical, Sulfurimonas gotlandica; details: 2 mM Mn2+, 50 mM Tris-HCl pH 7.5, room temperature
[5] = substrate: Cc1cn([C@H]2C[C@H](O)[C@@H](COP(=O)(O)O)O2)c(=O)[nH]c1=O; assay: phosphomolybdate phosphate release; format: biochemical, Bacteriophage DSS3_VP1; details: 2 mM Co2+, 50 mM Tris-HCl pH 7.5, room temperature
Source text: (§1) phosphomolybdate phosphate release on Dtm_DSS3_VP1

[6] = substrate: O=c1ccn([C@H]2C[C@H](O)[C@@H](COP(=O)(O)O)O2)c(=O)[nH]1; assay: phosphomolybdate phosphate release; format: biochemical, Bacteriophage DSS3_VP1; details: 2 mM Co2+, 50 mM Tris-HCl pH 7.5, room temperature
Source text: as §1

[7] = substrate: Cc1cn([C@H]2C[C@H](O)[C@@H](COP(=O)(O)O)O2)c(=O)[nH]c1=O; assay: phosphomolybdate phosphate release; format: biochemical, Bacillus phage PBS1; details: Mg2+ (table; methods text says 2 mM Co2+), 50 mM Tris-HCl pH 7.5, room temperature
Source text: phosphomolybdate phosphate release on Dtm_PBS1

purified protein [8] = substrate: Nc1ccn([C@H]2C[C@H](O)[C@@H](COP(=O)(O)O)O2)c(=O)n1; assay: purified protein; format: biochemical, Bacteriophage DSS3_VP1; details: 2 mM Mn2+, 50 mM Tris-HCl pH 7.5, room temperature
purified protein [9] = substrate: Nc1ccn([C@H]2C[C@H](O)[C@@H](COP(=O)(O)OP(=O)(O)O)O2)c(=O)n1; assay: purified protein; format: biochemical, Bacteriophage DSS3_VP1; details: 2 mM Mn2+, 50 mM Tris-HCl pH 7.5, room temperature
purified protein [10] = substrate: Nc1ccn([C@H]2C[C@H](O)[C@@H](COP(=O)(O)OP(=O)(O)OP(=O)(O)O)O2)c(=O)n1; assay: purified protein; format: biochemical, Bacteriophage DSS3_VP1; details: 2 mM Mn2+, 50 mM Tris-HCl pH 7.5, room temperature
purified protein [11] = substrate: Nc1ccn([C@H]2C[C@H](O)[C@@H](COP(=O)(O)O)O2)c(=O)n1; assay: purified protein; format: biochemical, Exiguobacterium artemiae; details: Co2+ is best metal (methods text for kinetics says 2 mM Mn2+), 50 mM Tris-HCl pH 7.5, room temperature
purified protein [12] = substrate: Nc1ccn([C@H]2C[C@H](O)[C@@H](COP(=O)(O)OP(=O)(O)O)O2)c(=O)n1; assay: purified protein; format: biochemical, Exiguobacterium artemiae; details: Co2+ is best metal (methods text for kinetics says 2 mM Mn2+), 50 mM Tris-HCl pH 7.5, room temperature
purified protein [13] = substrate: Nc1ccn([C@H]2C[C@H](O)[C@@H](COP(=O)(O)OP(=O)(O)OP(=O)(O)O)O2)c(=O)n1; assay: purified protein; format: biochemical, Exiguobacterium artemiae; details: Co2+ is best metal (methods text for kinetics says 2 mM Mn2+), 50 mM Tris-HCl pH 7.5, room temperature

Work on `Nc1nc2c(ncn2[C@H]2C[C@H](O)[C@@H](COP(=O)(O)OP(=O)(O)OP(=O)(O)O)O2)c(=O)[nH]1` [dGTP] yielded a Km (Dtt_PhiR1‐37) of 440 ± 110 µM.

For `Cc1cn([C@H]2C[C@H](O)[C@@H](COP(=O)(O)OP(=O)(O)OP(=O)(O)O)O2)c(=O)[nH]c1=O` [dTTP], the Km (Dtt_PhiR1‐37) was 108 ± 11 µM.

For `O=c1ccn([C@H]2C[C@H](O)[C@@H](COP(=O)(O)OP(=O)(O)OP(=O)(O)O)O2)c(=O)[nH]1` [dUTP], the Km (Dtt_PhiR1‐37) was 145 ± 16 µM and the “inhibition of dCTP deamination (details in supplement)” value (Dcd_PBS1) was “Bacillus phage PBS1 Dcd is negatively regulated by dUTP (Figure S9, Supporting Information)”.

For `Nc1ccn([C@H]2C[C@H](O)[C@@H](COP(=O)(O)OP(=O)(O)OP(=O)(O)O)O2)c(=O)n1` [dCTP], the Km (Dcd_PhiR1‐37) was 117 ± 31 µM.

B1: Dcd_PBS1 (Bacillus phage PBS1) (protein)
chain: T2 sequence (A0A223LD31 1-176)
notes: recombinant from codon-optimized synthetic gene in HMT plasmid, N-terminal His6-MBP tag, amylose column, E. coli
B1 gave a Km (purified protein [1]) of 137 ± 23 µM and a kcat (purified protein [1]) of 15.4 ± 1 s⁻¹.

B2: S. gotlandica cytidine nucleotide deaminase (Sulfurimonas gotlandica GD1) (protein)
chain: MLSDQNFINIAQELATASKCVSKQVGAVIVKDGRILSTGYNGTPAGFTNCCDHWNGEYTPDHHEWSKTYEIHAEMNAIIWAARKGISIEGASIFVTLEPCSECSKNLIASGIKRIVYAKEYEHTHSDTISKFIKDNGVSIEQLAPKV
notes: as for B1
Molecule B2 has a Km (purified protein [2]) of 661 ± 178 µM, a kcat (purified protein [2]) of 0.28 ± 0.05 s⁻¹ and a Km (purified protein [3]) of 271 ± 90 µM. For the same molecule, the kcat (purified protein [3]) was 0.5 ± 0.1 s⁻¹, the Km (purified protein [4]) was 293 ± 88 µM and the kcat (purified protein [4]) was 0.06 ± 0.01 s⁻¹.

B3: Dtm_DSS3_VP1 (Bacteriophage DSS3_VP1) (protein)
chain: MCNEKIALGYELYTSGYVNRYHSHPHPHLRNAQDLTDAHSNRMVKLLYLFFPELAHRGTLVAYIVMHDAGESASGDSPFTAKIANPKLKEALDEVEGQRLAQFYGLFQNDLRIDLTQKEENVVKLLDLLESFLFQAIHAPGRMDEEHHLFQNIEKRARELEVYPEVRCMMMHALHRNNAATKGY
notes: as for B1
Molecule B3 has a Km [5] of 22 ± 4 µM, a kcat [5] of 3.1 ± 0.1 s⁻¹ and a Km [6] of 170 ± 15 µM. For the same molecule, the kcat [6] was 1 ± 0.1 s⁻¹.

B4: Dtm_PBS1 (Bacillus phage PBS1) (protein)
chain: MFSIKEPFSIVTDCDEVLTDISPLWVHKIQQNADYFGKYFDLSKLEGLEFGTFEHYQTVLSRPEFHLNKWLRKENLVLSDEEEKELFERFYSLYDNDEFYEDCMPTKMCEGIYKLSLQKFVDKIYVVTRTSEGTKEGKRKFIETFLNSNKVEIIFVGKNEKKSDYIKNLKNVKMIVEDELSNINDIVENCNDGFEEVDIYIPSTGYNNKDIDGFNENLMKKGFNAVPYVIIERPETEEKAV
notes: recombinant from pCold TF, E. coli BL21(DE3), N-terminal His6-Trigger factor-TEV site tag, Ni-NTA; tag kept
For B4, the Km [7] was 42 ± 8 µM and the kcat [7] was 0.0317 ± 0.0017 s⁻¹.

B5: Dcd_DSS3_VP1 (Bacteriophage DSS3_VP1) (protein)
chain: MHSWDKRFMEMAELVASWSKDPRTKVGCVLADSKHRVLGVGYNGFPRGVNDRDDRYANREVKLAMVKHAEENAVFNAAKHDLSDAVAYVTLAPCSSCAGTLIQAGVRRVVFPEPDPEHMTRHYGNYELMLQMLSEARVLKSVITKEGVIK
notes: as for B1
B5 showed a Km (purified protein [8]) of 257 ± 55 µM, a kcat (purified protein [8]) of 1 ± 0.1 s⁻¹ and a Km (purified protein [9]) of 144 ± 44 µM. The kcat (purified protein [9]) was 5.6 ± 0.8 s⁻¹, the Km (purified protein [10]) was 114 ± 22 µM and the kcat (purified protein [10]) was 8.9 ± 0.7 s⁻¹.

B6: E. sibiricum cytidine nucleotide deaminase (Exiguobacterium artemiae 255-15) (protein)
chain: MMKKQHQWDTTWLLFARMMADRHSKCASKSVACVIVKDEKPISIGINGTPSQHVNCNEIYLKQDNILYKAEAERQQEKADALSIVHNGQVFYRCDNQEEHHEWSKMNEIHAEINALGKLAADSTSARHATAYVTHSPCHACSLALIASKIDRVVYSTGYEYGDGLTLMRQSEIEVLHRPLTEEYFLERIFDKDL
notes: as for B1
In the case of B6, the Km (purified protein [11]) is reported as 415 ± 143 µM, the kcat (purified protein [11]) is reported as 0.05 ± 0.01 s⁻¹ and the Km (purified protein [12]) is reported as 179 ± 31 µM. It also gave a kcat (purified protein [12]) of 21.2 ± 1.9 s⁻¹, a Km (purified protein [13]) of 186 ± 35 µM and a kcat (purified protein [13]) of 0.9 ± 0.1 s⁻¹.
